Data on 4 molecules can be found in patent publication US20190048071A1 (MorphoSys, published 2019).

For assay [1], the target named is T1, Human IL-17C (human, UniProt Q9P0M4 19-197, biotinylated in the receptor inhibition assay (ECL biotinylation module)).
T1 sequence: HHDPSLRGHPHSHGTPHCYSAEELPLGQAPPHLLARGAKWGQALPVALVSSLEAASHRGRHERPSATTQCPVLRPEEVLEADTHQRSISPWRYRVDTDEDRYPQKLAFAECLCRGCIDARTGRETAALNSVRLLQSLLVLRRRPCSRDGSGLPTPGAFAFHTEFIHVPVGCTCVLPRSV
Briefly: cell-based or functional assay.

Assay [2] concerns the target T2, Mouse IL-17C (mouse, UniProt Q8K4C5 17-194, biotinylated in the receptor inhibition assay (ECL biotinylation module)).
T2 sequence: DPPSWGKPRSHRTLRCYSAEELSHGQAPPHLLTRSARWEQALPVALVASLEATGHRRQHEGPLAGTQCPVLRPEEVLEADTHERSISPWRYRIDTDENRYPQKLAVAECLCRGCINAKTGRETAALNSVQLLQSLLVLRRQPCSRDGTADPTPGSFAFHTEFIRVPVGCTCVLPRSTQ
Put plainly: cell-based or functional assay.

For assay [3], the target named is T3, Cynomolgus monkey IL-17C (cynomolgus monkey, UniProt Q9P0M4 19-197 (human entry), limits assumed, biotinylated in the receptor inhibition assay (ECL biotinylation module)).
T3 chain: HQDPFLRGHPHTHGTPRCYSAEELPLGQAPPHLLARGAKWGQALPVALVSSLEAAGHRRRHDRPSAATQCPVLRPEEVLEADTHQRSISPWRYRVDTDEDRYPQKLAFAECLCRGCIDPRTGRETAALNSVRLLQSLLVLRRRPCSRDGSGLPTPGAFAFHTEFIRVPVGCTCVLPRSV
Briefly: cell-based or functional assay.

Assay [4] deals with T1, Human IL-17C. Briefly: SET (solution equilibrium titration, ECL based), apparent affinity, bivalent IgG. From the text: (§1) Solution equilibrium titration (SET) was basically performed as described in the literature (Friquet et al., (1985) J. Immunol. Meth. 77: 305-19). In order to improve the sensitivity and accuracy of the SET method, it was transferred from classical ELISA to ECL based technology (Haenel et al. (2005) Anal Biochem. 339.1: 182-84).

Assay [5] concerns the target T2, Mouse IL-17C. Described as above.
Excerpt: as §1

Assay [6] deals with T3, Cynomolgus monkey IL-17C. The assay is described as above.
Excerpt: as §1

The target of assay [7] is T1, Human IL-17C. Put plainly: MSD receptor inhibition assay, IgG format: IgG pre-incubated with biotinylated human IL-17C, binding to coated mouse IL17RE/Fc. The method, then: (§2) Purified IL-17C specific Fabs or IgGs, respectively were tested for its capacity to inhibit the binding of IL-17C to its specific receptor IL-17RE. Therefore MA6000 384-well plates (Meso Scale Discovery, MSD) were coated with 30 μl of mouse IL17RE/Fc chimeric protein at 75 ng/ml in PBS at 4° C. overnight. The next day a serial antibody dilution (concentrations from 0.001 to 100 nM) were pre-incubated for 30 min at RT with an equal volume of biotinylated human/cynomolgus or mouse IL-17C to determine an IC₅₀ concentration for receptor binding inhibition. After blocking of plates for 1 h with 2.5% BSA in PBST, previously formed antibody-ligand complexes were added for 1 h to coated IL17RE/Fc and receptor binding was detected via Streptavidin-ECL using MSD Sector Imager.
(§3) Results are shown in rows 3 and 4 in Table 2 and Table 3 respectively.

For assay [8], the target named is T2, Mouse IL-17C. Put plainly: MSD receptor inhibition assay, IgG format: IgG pre-incubated with biotinylated mouse IL-17C, binding to coated mouse IL17RE/Fc. The method, then:
as §2, §3

For assay [9], the target named is T3, Cynomolgus monkey IL-17C. Briefly: MSD receptor inhibition assay, IgG format: IgG pre-incubated with biotinylated cynomolgus IL-17C, binding to coated mouse IL17RE/Fc. The method, then: as §2, §3
Assay [10] has as its target T1, Human IL-17C. Briefly: SET (solution equilibrium titration, ECL based), monovalent affinity, Fab.
Excerpt: as §1

Assay [11] addresses T2, Mouse IL-17C. Described as above.
Excerpt: as §1

The target in assay [12] is T3, Cynomolgus monkey IL-17C. The assay is described as above.
Excerpt: as §1

Assay [13] addresses T1, Human IL-17C. Briefly: MSD receptor inhibition assay, Fab format: Fab pre-incubated with biotinylated human IL-17C, binding to coated mouse IL17RE/Fc. The method, then:
as §2, §3

In assay [14] the target is T2, Mouse IL-17C. Briefly: MSD receptor inhibition assay, Fab format: Fab pre-incubated with biotinylated mouse IL-17C, binding to coated mouse IL17RE/Fc. The method, then: as §2
Assay [15] has as its target T3, Cynomolgus monkey IL-17C. Put plainly: MSD receptor inhibition assay, Fab format: Fab pre-incubated with biotinylated cynomolgus IL-17C, binding to coated mouse IL17RE/Fc. The method, then:
as §2, §3

Assay [16] concerns the target T1, Human IL-17C. Put plainly: cell-based or functional assay. This is another data set of the same source.
The target in assay [17] is T2, Mouse IL-17C. Briefly: cell-based or functional assay. This is another data set of the same source.
The target of assay [18] is T3, Cynomolgus monkey IL-17C. Put plainly: cell-based or functional assay.
Assay [19] addresses T3, Cynomolgus monkey IL-17C. Put plainly: MSD receptor inhibition assay, Fab format: Fab pre-incubated with biotinylated cynomolgus IL-17C, binding to coated mouse IL17RE/Fc. The method, then:
as §2

Read-outs that look alike come from different tables or passages of the source.

B1: MAB#1 IgG1 (antibody, V domains shown)
VH: EVQLLESGGGLVQPGGSLRLSCAASGFTVSDYAMHWVRQAPGKGLEWVSYIGGVGEGTQYAESVKGRFTISRDNSKNTLYLQMNSLRAEDTAVYYCARGFAIRYYGFDYWGQGTLVTVSS
VL: SYELTQPPSVSVSPGQTASITCSGDKLGDKYAYWYQQKPGQSPVLVIYQDSKRPSGIPERFSGSNSGNTATLTISGTQAEDEADYYCQVFTFPLVTTVFGGGTKLTVLG
notes: Human IgG1 with lambda light chain from the Ylanthia library
The term EC50 denotes the concentration needed to bring the measured effect to its halfway point. As usually defined, the IC50 is the concentration at which inhibition is half-maximal. Regarding B1, the “Keratinocyte assay (IC50; DEFB4A gene expression in primary human keratinocytes stimulated with hIL-17C and TNFα)” value in assay [1] turned out to be 0.319 nM. Besides, the “NF-κB reporter assay (IC50)” value in [1] came to 0.0313 nM; in [2], 0.0476 nM; in assay [3], 0.0128 nM. Also, in assay [2], the “Keratinocyte assay (IC50; CSF3 gene expression in mouse primary keratinocytes)” value was found to be 0.112 nM. Besides, the EC50 in [4] came to 0.019 nM; in assay [5] it was 0.387 nM; in assay [6], 0.257 nM. Moreover, the IC50 in assay [7] came out at 0.059 nM; in assay [8], 0.055 nM; in assay [9] it was 0.044 nM.

B2: MAB#1 Fab (Fab, V domains shown)
VH: EVQLLESGGGLVQPGGSLRLSCAASGFTVSDYAMHWVRQAPGKGLEWVSYIGGVGEGTQYAESVKGRFTISRDNSKNTLYLQMNSLRAEDTAVYYCARGFAIRYYGFDYWGQGTLVTVSS
VL: SYELTQPPSVSVSPGQTASITCSGDKLGDKYAYWYQQKPGQSPVLVIYQDSKRPSGIPERFSGSNSGNTATLTISGTQAEDEADYYCQVFTFPLVTTVFGGGTKLTVLG
notes: Purified monovalent Fab; also called MAB#1 (Fab format)
One may read the Kd as a measure of binding affinity in units of concentration. With B2, the results for the Kd in assay [10], in [11] and in [12] were 3.95 nM, 28 nM and 22 nM, respectively. For the same molecule, the IC50 came to 2.9 nM in assay [13], 6 nM in [14] and 2.7 nM in assay [15].

B3: MAB#2 IgG1 (antibody, V domains shown)
VH: QVQLVESGGGLVKPGGSLRLSCAASGFTFSDHYISWIRQAPGKGLEWVSYISSSGSTTYYAESVKGRFTISRDNAKNSLYLQMNSLRAEDTAVYYCARQSYYFLPYFDVWGQGTLVTVSS
VL: QSALTQPASVSGSPGQSITISCTGTSSDVGSYNLVSWYQQHPGKAPKLMIYEGSKRPSGVSNRFSGSKSGNTASLTISGLQAEDEADYYCASRGSRRVLYVFGGGTKLTVLG
notes: as for B1
On to B3, for which the “Keratinocyte assay (IC50; DEFB4A gene expression in primary human keratinocytes stimulated with hIL-17C and TNFα)” value in [16] amounted to 0.28 nM. The results for the “NF-κB reporter assay (IC50)” value in assay [16], in assay [17] and in assay [18] were 0.0185 nM, 0.0648 nM and 0.0129 nM, respectively. For the same molecule, in [17], the “Keratinocyte assay (IC50; CSF3 gene expression in mouse primary keratinocytes)” value was 0.051 nM. Also, the EC50 turned out to be 0.016 nM in assay [4] and 0.323 nM in assay [5]. Moreover, the IC50 is 0.058 nM in [7], 0.048 nM in [8] and 0.057 nM in assay [9].

B4: MAB#2 Fab (Fab, V domains shown)
VH: QVQLVESGGGLVKPGGSLRLSCAASGFTFSDHYISWIRQAPGKGLEWVSYISSSGSTTYYAESVKGRFTISRDNAKNSLYLQMNSLRAEDTAVYYCARQSYYFLPYFDVWGQGTLVTVSS
VL: QSALTQPASVSGSPGQSITISCTGTSSDVGSYNLVSWYQQHPGKAPKLMIYEGSKRPSGVSNRFSGSKSGNTASLTISGLQAEDEADYYCASRGSRRVLYVFGGGTKLTVLG
notes: Purified monovalent Fab; also called MAB#2 (Fab format)
As for B4, the Kd in assay [10] was found to be 0.037 nM; in [11], 0.46 nM; in assay [12] it was 0.063 nM. In addition, the IC50 in assay [13] came to 0.076 nM; in assay [14], 0.15 nM; in [19], 0.05 nM.
